Laboratory results from patent US20240182536A1 (MURAL ONCOLOGY, published 2024).
Substitutions are numbered along the chain they refer to. Numbers in names are those of the source.

B1: IL-18 variant G3L, E6Y, D54T, T63S, N91Y, R104Q (ligand)
chain: YFLKLYSKLSVIRNLNDQVLFIDQGNRPLFEDMTDSDMRDNAPRTIFIISMYKTSQPRGMAVSISVKSEKISTLSSENKIISFKEMNPPDYIKDTKSDIIFFQQSVPGHDNKMQFESSSYEGYFLASEKERDLFKLILKKEDELGDRSIMFTVQNED
B2: IL-18 variant G3P, E6H, N91L (ligand)
chain: B1 chain with L3P, Y6H, T54D, S63T, Y91L, Q104R
B3: IL-18 variant G3P, E6G, D54T, S55W, N91E, R104K (ligand)
chain: B1 chain with L3P, Y6G, S55W, S63T, Y91E, Q104K
B4: IL-18 variant G3D, E6G, K53G, D54A, T63S, N91Y, R104Q (ligand)
chain: B1 chain with L3D, Y6G, K53G, T54A
B5: IL-18 variant G3Q, E6H, K53T, D54S, S55Y, N91Y, R104K (ligand)
chain: B1 chain with L3Q, Y6H, K53T, T54S, S55Y, S63T, Q104K
B6: IL-18 variant G3P, E6H, D54A, S55P, Q56K, T63S, N91M (ligand)
chain: B1 chain with L3P, Y6H, T54A, S55P, Q56K, Y91M, Q104R
B7: IL-18 variant G3P, E6K, D54Y, S55P, T63S, N91S, R104Q, Q154R (ligand)
chain: B1 chain with L3P, Y6K, T54Y, S55P, Y91S, Q154R
B8: IL-18 variant G3P, E6K, D54Y, S55P, T63S, N91S, R104Q (ligand)
chain: B1 chain with L3P, Y6K, T54Y, S55P, Y91S
B9: IL-18 variant G3R, L5W, E6H, D54Y, Q56H, N91R (ligand)
chain: B1 chain with L3R, L5W, Y6H, T54Y, Q56H, S63T, Y91R, Q104R
B10: IL-18 variant G3Q, E6Q, K53T, D54W, S55F, N91Y (ligand)
chain: B1 chain with L3Q, Y6Q, K53T, T54W, S55F, S63T, Q104R
B11: IL-18 variant G3P, E6K, D54Y, S55P, Q56H, T63S, N91S, R104Q (ligand)
chain: B1 chain with L3P, Y6K, T54Y, S55P, Q56H, Y91S
B12: IL-18 variant G3P, E6V, K53A, D54W, S55P, T63S, N91L, R104K (ligand)
chain: B1 chain with L3P, Y6V, K53A, T54W, S55P, Y91L, Q104K
B13: IL-18 variant G3L, E6S, D54T, T63S, N91Y, R104Q (ligand)
chain: B1 chain with Y6S
B14: IL-18 variant G3P, E6K, D54R, S55P, T63A, N91V (ligand)
chain: B1 chain with L3P, Y6K, T54R, S55P, S63A, Y91V, Q104R

The binders below were run against T1, IL-18 receptors on HEK-Blue IL-18 reporter cells (UniProt Q13478 19-541; O95256 20-599, limits assumed) (assay: cell-based or functional assay).
T1 sequence (looked up) 1: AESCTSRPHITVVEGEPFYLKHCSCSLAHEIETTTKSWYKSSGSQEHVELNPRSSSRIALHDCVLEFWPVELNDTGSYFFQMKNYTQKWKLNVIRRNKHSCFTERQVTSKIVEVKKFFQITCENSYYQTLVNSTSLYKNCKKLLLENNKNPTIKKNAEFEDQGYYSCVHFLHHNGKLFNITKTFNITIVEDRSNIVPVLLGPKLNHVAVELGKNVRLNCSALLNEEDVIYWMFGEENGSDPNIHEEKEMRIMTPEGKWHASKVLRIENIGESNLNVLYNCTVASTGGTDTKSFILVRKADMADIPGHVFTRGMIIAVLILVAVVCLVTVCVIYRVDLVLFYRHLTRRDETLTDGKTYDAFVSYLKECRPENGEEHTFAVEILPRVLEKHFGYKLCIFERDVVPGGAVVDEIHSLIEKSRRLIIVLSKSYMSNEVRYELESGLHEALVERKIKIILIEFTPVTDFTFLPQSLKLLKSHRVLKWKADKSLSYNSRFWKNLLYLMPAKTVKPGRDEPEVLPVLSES
T1 sequence (looked up) 2: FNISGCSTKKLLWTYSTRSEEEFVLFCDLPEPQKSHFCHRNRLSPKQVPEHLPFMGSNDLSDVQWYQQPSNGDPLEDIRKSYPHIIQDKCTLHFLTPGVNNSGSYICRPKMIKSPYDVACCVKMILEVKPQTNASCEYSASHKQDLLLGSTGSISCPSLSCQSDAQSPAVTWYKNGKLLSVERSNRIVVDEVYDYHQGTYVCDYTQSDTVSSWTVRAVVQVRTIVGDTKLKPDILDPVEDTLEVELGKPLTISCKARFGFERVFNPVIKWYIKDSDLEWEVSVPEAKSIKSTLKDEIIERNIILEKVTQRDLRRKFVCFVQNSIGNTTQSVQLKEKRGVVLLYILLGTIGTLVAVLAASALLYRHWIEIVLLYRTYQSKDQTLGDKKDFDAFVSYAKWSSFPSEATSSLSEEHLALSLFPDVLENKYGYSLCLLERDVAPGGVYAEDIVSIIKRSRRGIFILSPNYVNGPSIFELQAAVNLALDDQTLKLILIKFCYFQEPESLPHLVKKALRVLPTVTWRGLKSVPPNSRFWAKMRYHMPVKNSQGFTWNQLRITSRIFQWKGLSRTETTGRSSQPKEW

Row | Binder | Activity, No BP, DF-100000 | Activity, No BP, DF-500000 | Activity, No BP, DF-2500000
1 | B1 | 2.14 | 2.02 | 1.69
2 | B2 | 1.45 | 0.9 | 0.29
3 | B3 | 0.35 | 0.13 | 0.07
4 | B4 | 1.36 | 0.72 | 0.21
5 | B5 | 1.52 | 0.95 | 0.31
6 | B6 | 1.2 | 0.63 | 0.17
7 | B7 | 1.49 | 0.94 | 0.36
8 | B8 | 1.75 | 1.32 | 0.72
9 | B9 | 0.39 | 0.12 | 0.08
10 | B10 | 1.23 | 0.54 | 0.17
11 | B11 | 1.63 | 1.1 | 0.53
12 | B12 | 1.18 | 0.52 | 0.19
13 | B13 | 2.11 | 1.98 | 1.73
14 | B14 | 1.31 | 0.67 | 0.22

Each binder was assayed against T2, IL-18 binding protein (IL-18BP) (UniProt O95998 31-194) (assay: cell-based or functional assay).
T2 sequence (looked up): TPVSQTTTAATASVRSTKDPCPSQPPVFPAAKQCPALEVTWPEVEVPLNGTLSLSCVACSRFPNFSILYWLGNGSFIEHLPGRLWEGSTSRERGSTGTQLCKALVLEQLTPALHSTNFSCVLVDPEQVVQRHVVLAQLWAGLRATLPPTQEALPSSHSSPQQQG

Row | Binder | Activity, +100 nM BP, DF-1000002 | Activity, +100 nM BP, DF-5000003 | Activity, +100 nM BP, DF-25000004 | Ratio (-BP/+BP), DF-1000005 | Ratio (-BP/+BP), DF-5000006 | Ratio (-BP/+BP), DF-25000007
15 | B1 | 2.04 | 1.92 | 1.45 | 1.05 | 1.05 | 1.17
16 | B2 | 1.52 | 0.93 | 0.33 | 0.95 | 0.97 | 0.87
17 | B3 | 0.33 | 0.12 | 0.08 | 1.09 | 1.06 | 0.97
18 | B4 | 1.33 | 0.73 | 0.19 | 1.02 | 0.98 | 1.14
19 | B5 | 1.48 | 0.88 | 0.29 | 1.03 | 1.08 | 1.08
20 | B6 | 1.24 | 0.61 | 0.19 | 0.97 | 1.03 | 0.9
21 | B7 | 1.51 | 0.81 | 0.39 | 0.99 | 1.16 | 0.93
22 | B8 | 1.8 | 1.35 | 0.77 | 0.97 | 0.97 | 0.93
23 | B9 | 0.32 | 0.11 | 0.08 | 1.25 | 1.09 | 1.01
24 | B10 | 1.14 | 0.45 | 0.14 | 1.08 | 1.21 | 1.2
25 | B11 | 1.69 | 1.08 | 0.54 | 0.96 | 1.02 | 0.98
26 | B12 | 1.21 | 0.57 | 0.18 | 0.98 | 0.9 | 1.04
27 | B13 | 2.06 | 1.95 | 1.44 | 1.02 | 1.02 | 1.2
28 | B14 | 1.34 | 0.73 | 0.28 | 0.98 | 0.92 | 0.79
